Reference: US20230134571A1 (INTERNATIONAL AIDS VACCINE INITIATIVE, published 2023)

What was measured:
Assay in all cases: cell-based or functional assay
[1] = biological target: HIV Env of isolate 6545.v4.c1 (clade AC) (HIV)
[2] = biological target: HIV Env of isolate Q769.d22 (clade A) (HIV)
[3] = biological target: HIV Env of isolate BJOX028000.10.3 (clade AE) (HIV)
[4] = biological target: HIV Env of isolate Q842.d12 (clade A) (HIV)
[5] = biological target: HIV Env of isolate 6041.v3.c23 (clade AC) (HIV)
[6] = biological target: HIV Env of isolate 246FC1G (clade C) (HIV)
[7] = biological target: HIV Env of isolate CNE5 (clade AE) (HIV)
[8] = biological target: HIV Env of isolate P1981_C5_3 (clade G) (HIV)
[9] = biological target: HIV Env of isolate T263-8 (clade AG) (HIV)
[10] = biological target: HIV Env of isolate ZM214M.PL15 (clade C) (HIV)
[11] = biological target: HIV Env of isolate X1254_C3 (clade G) (HIV)
[12] = biological target: HIV Env of isolate HIV-001428-2.42 (clade C) (HIV)
[13] = biological target: HIV Env of isolate TRJO4551.58 (clade B) (HIV)
[14] = biological target: HIV Env of isolate CAP210.2.00.E8 (clade C) (HIV)
[15] = biological target: HIV Env of isolate 6540.v4.c1 (clade AC) (HIV)
[16] = biological target: HIV Env of isolate BJOX015000.11.5 (clade AE) (HIV)
[17] = biological target: HIV Env of isolate CNE19 (clade BC) (HIV)
[18] = biological target: HIV Env of isolate Ce2060_G9 (clade C) (HIV)
[19] = biological target: HIV Env of isolate CNE20 (clade BC) (HIV)
[20] = biological target: HIV Env of isolate BJOX025000.01.1 (clade AE) (HIV)
[21] = biological target: HIV Env of isolate 191084B7-19 (clade A) (HIV)
[22] = biological target: HIV Env of isolate Ce0393_C3 (clade C) (HIV)
[23] = biological target: HIV Env of isolate ZM249M.PL1 (clade C) (HIV)
[24] = biological target: HIV Env of isolate 0260.v5.c36 (clade A) (HIV)
[25] = biological target: HIV Env of isolate REJO4541.67 (clade B) (HIV)
[26] = biological target: HIV Env of isolate 9004SS_A3_4 (clade A) (HIV)
[27] = biological target: HIV Env of isolate 191955_A11 (clade A) (HIV)
[28] = biological target: HIV Env of isolate AC10.0.29 (clade B) (HIV)
[29] = biological target: HIV Env of isolate CAAN5342.A2 (clade B) (HIV)
[30] = biological target: HIV Env of isolate A07412M1.vrc12 (clade D) (HIV)

B1: ePGDM13 (antibody, V domains shown)
VH: QAQLVQSGPEVRKPGTSVKVSCKNPGNTLTTYDLHWVRQVPGQGLQWMGWISHEGDKKVIVERFKAKVTIDWDRSTNTAYLQLSGLTSEDTAVYYCAKGSKHRLRDYALYDEDGALNWAVDVDYLANLEFWGQGTAVTVSS
VL: DIVLTQSPLSLSVTPGESASISCKSSHSLQHGDRNNYLAWYVQKPGRSPQLLLDLASERASGVPDRFSGSGSEKDFTLKISRVETEDVGTYYCMQGRESPWTFGQGTKVDIK
- IC50 (µg/ml) with constrains [1]: 0.076 µg/mL
- IC80 (µg/ml) with constrains [1]: 0.305 µg/mL
- IC50 (µg/ml) with constrains [2]: 0.002 µg/mL
- IC80 (µg/ml) with constrains [2]: 0.01 µg/mL
- IC50 (µg/ml) with constrains [3]: 0.035 µg/mL
- IC80 (µg/ml) with constrains [3]: 0.139 µg/mL
- IC50 (µg/ml) with constrains [4]: > 100 µg/mL
- IC80 (µg/ml) with constrains [4]: > 100 µg/mL
- IC50 (µg/ml) with constrains [5]: 0.007 µg/mL
- IC80 (µg/ml) with constrains [5]: 0.029 µg/mL
- IC50 (µg/ml) with constrains [6]: > 100 µg/mL
- IC50 (µg/ml) with constrains [7]: 0.001 µg/mL
- IC80 (µg/ml) with constrains [7]: 0.004 µg/mL
- IC50 (µg/ml) with constrains [8]: 0.319 µg/mL
- IC50 (µg/ml) with constrains [9]: 0.025 µg/mL
- IC50 (µg/ml) with constrains [10]: > 100 µg/mL
- IC50 (µg/ml) with constrains [11]: 0.518 µg/mL
- IC50 (µg/ml) with constrains [12]: 0.003 µg/mL
- IC50 (µg/ml) with constrains [13]: > 100 µg/mL
- IC50 (µg/ml) with constrains [14]: 0.135 µg/mL
- IC50 (µg/ml) with constrains [15]: 0.015 µg/mL
- IC80 (µg/ml) with constrains [15]: 0.06 µg/mL
- IC50 (µg/ml) with constrains [16]: 1.72 µg/mL
- IC80 (µg/ml) with constrains [16]: 6.86 µg/mL
- IC50 (µg/ml) with constrains [17]: 0.003 µg/mL
- IC50 (µg/ml) with constrains [18]: 0.018 µg/mL
- IC50 (µg/ml) with constrains [19]: 0.004 µg/mL
- IC50 (µg/ml) with constrains [20]: 0.018 µg/mL
- IC80 (µg/ml) with constrains [20]: 0.071 µg/mL
- IC50 (µg/ml) with constrains [21]: 0.001 µg/mL
- IC80 (µg/ml) with constrains [21]: 0.003 µg/mL
- IC50 (µg/ml) with constrains [22]: 0.006 µg/mL
- IC50 (µg/ml) with constrains [23]: 0.014 µg/mL
- IC50 (µg/ml) with constrains [24]: 0.025 µg/mL
- IC80 (µg/ml) with constrains [24]: 0.098 µg/mL
- IC50 (µg/ml) with constrains [25]: 0.002 µg/mL
- IC50 (µg/ml) with constrains [26]: > 100 µg/mL
- IC80 (µg/ml) with constrains [26]: > 100 µg/mL
- IC50 (µg/ml) with constrains [27]: 0.008 µg/mL
- IC80 (µg/ml) with constrains [27]: 0.033 µg/mL
- IC50 (µg/ml) with constrains [28]: 0.194 µg/mL
- IC50 (µg/ml) with constrains [29]: 40.2 µg/mL
- IC50 (µg/ml) with constrains [30]: 0.029 µg/mL
